Source: IntAct's records for PubMed 35512704

B1: Mothers against decapentaplegic homolog 4 (Homo sapiens), Q13485 (parent)
chain: MDNMSITNTPTSNDACLSIVHSLMCHRQGGESETFAKRAIESLVKKLKEKKDELDSLITAITTNGAHPSKCVTIQRTLDGRLQVAGRKGFPHVIYARLWRWPDLHKNELKHVKYCQYAFDLKCDSVCVNPYHYERVVSPGIDLSGLTLQSNAPSSMMVKDEYVHDFEGQPSLSTEGHSIQTIQHPPSNRASTETYSTPALLAPSESNATSTANFPNIPVASTSQPASILGGSHSEGLLQIASGPQPGQQQNGFTGQPATYHHNSTTTWTGSRTAPYTPNLPHHQNGHLQHHPPMPPHPGHYWPVHNELAFQPPISNHPAPEYWCSIAYFEMDVQVGETFKVPSSCPIVTVDGYVDPSGGDRFCLGQLSNVHRTEAIERARLHIGKGVQLECKGEGDVWVRCLSDHAVFVQSYYLDREAGRAPGDAVHKIYPSAYIKVFDLRQCHRQMQQQAATAQAAAAAQAAAVAGNIPGPGSVGGIAPAISLSAAAGIGVDDLRRLCILRMSFVKGWGPDYPRQSIKETPCWIEIHLHRALQLLDEVLHTMPIADPQPLD
partner: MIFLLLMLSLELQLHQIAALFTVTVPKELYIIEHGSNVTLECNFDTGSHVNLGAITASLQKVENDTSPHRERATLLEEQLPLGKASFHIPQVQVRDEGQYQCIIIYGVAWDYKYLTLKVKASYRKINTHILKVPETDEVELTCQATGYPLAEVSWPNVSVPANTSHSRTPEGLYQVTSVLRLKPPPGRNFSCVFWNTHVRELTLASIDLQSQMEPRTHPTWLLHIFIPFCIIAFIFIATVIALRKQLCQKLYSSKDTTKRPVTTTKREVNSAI
B2: Mothers against decapentaplegic homolog 4 (Homo sapiens), Q13485 (parent)
chain: B1 chain
partner: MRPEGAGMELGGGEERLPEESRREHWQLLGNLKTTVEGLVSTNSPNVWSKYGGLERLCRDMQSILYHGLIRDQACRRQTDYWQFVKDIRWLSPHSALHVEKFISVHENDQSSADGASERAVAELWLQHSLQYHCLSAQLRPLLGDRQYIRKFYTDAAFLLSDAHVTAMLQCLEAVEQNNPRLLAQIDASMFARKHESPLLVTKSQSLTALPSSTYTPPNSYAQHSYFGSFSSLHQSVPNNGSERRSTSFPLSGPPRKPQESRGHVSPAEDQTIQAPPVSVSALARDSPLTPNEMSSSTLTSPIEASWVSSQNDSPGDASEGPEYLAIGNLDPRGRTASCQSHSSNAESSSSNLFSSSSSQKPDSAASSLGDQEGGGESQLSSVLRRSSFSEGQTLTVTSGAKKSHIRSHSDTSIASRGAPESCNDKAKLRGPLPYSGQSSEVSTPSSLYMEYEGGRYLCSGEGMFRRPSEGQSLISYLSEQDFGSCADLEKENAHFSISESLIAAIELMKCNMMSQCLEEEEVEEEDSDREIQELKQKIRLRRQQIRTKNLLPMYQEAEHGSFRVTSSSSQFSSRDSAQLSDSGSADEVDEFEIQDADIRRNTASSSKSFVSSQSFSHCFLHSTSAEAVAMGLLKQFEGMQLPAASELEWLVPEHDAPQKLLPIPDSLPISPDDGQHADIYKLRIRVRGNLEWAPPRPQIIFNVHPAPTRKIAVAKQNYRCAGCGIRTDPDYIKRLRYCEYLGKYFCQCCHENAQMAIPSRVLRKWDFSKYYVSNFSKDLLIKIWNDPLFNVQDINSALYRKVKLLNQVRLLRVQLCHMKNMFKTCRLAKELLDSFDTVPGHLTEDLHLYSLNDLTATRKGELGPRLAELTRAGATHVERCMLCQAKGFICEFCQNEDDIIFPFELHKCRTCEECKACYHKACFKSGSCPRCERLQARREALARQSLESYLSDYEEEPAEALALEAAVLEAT
B3: Mothers against decapentaplegic homolog 4 (Homo sapiens), Q13485 (parent)
chain: B1 chain
partner: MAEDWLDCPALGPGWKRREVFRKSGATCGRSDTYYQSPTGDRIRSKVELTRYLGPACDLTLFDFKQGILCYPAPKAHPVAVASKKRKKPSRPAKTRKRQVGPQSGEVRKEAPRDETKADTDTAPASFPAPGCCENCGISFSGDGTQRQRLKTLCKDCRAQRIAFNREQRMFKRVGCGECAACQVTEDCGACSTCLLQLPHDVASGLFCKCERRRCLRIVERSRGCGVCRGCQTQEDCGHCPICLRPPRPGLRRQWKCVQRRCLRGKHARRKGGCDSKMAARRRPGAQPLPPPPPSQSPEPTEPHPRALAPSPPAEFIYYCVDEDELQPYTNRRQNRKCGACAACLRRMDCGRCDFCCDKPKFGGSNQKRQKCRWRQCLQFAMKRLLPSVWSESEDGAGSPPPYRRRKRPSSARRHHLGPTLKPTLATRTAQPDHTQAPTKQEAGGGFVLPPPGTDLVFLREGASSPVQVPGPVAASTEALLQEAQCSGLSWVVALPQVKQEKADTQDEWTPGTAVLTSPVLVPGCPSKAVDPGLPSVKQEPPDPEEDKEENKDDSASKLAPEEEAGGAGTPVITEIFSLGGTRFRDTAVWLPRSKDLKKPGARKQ
B4: Mothers against decapentaplegic homolog 4 (Homo sapiens), Q13485 (parent)
chain: B1 chain
partner: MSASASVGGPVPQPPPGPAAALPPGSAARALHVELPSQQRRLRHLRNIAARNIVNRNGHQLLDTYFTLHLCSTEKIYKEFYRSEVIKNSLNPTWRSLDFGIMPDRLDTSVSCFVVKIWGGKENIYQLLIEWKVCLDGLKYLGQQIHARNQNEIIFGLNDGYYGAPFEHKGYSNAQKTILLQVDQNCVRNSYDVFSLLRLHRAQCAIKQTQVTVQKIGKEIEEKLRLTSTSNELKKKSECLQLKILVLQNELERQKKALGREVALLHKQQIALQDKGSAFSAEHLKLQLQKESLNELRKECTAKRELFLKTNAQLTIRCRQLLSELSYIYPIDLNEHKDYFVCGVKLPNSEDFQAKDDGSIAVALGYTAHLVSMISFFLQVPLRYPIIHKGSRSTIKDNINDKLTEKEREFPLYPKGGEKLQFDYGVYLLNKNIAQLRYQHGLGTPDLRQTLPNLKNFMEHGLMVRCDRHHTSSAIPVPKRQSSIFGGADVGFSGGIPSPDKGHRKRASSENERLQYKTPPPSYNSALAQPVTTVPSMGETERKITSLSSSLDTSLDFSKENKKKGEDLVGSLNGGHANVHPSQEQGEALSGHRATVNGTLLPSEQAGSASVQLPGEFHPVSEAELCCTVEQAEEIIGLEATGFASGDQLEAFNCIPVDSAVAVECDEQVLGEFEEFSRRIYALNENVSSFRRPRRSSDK

Variants of: B1
Settings: with pd1l2_human PDCD1LG2, Q9BQ51

effect of a mutation on the interaction | Variant
with no effect | D351H

Variants of: B1
Settings: with pd1l2_human PDCD1LG2, Q9BQ51
Remark: another data set of the same source

effect of a mutation on the interaction | Variant
with no effect | G386D

Variants of: B2
Settings: with rubic_human RUBCN

effect of a mutation on the interaction | Variant
with no effect | D351H

Variants of: B2
Settings: with rubic_human RUBCN
Remark: another data set of the same source

effect of a mutation on the interaction | Variant
with no effect | G386D

Variants of: B2
Settings: with rubic_human RUBCN
Remark: another data set of the same source

effect of a mutation on the interaction | Variant
with no effect | R361H

Variants of: B2
Settings: with rubic_human RUBCN
Remark: another data set of the same source

effect of a mutation on the interaction | Variant
with no effect | R361C

Variants of: B3
Settings: with mbd1_human MBD1, Q9UIS9

effect of a mutation on the interaction | Variant
with no effect | R361C

Variants of: B3
Settings: with mbd1_human MBD1, Q9UIS9
Remark: another data set of the same source

effect of a mutation on the interaction | Variant
with no effect | R361H

Variants of: B3
Settings: with mbd1_human MBD1, Q9UIS9
Remark: another data set of the same source

effect of a mutation on the interaction | Variant
with no effect | G386D

Variants of: B3
Settings: with mbd1_human MBD1, Q9UIS9
Remark: another data set of the same source

effect of a mutation on the interaction | Variant
with no effect | D351H

Variants of: B4
Settings: with uvrag_human UVRAG

effect of a mutation on the interaction | Variant
with no effect | D351H
